Data on 4 molecules can be found in paper PMC9482650, “Quantitative fragmentomics allow affinity mapping of interactomes” (Nature Communications, 2022).

What all share (experiment): holdup assay
Design in all cases: key: below the threshold = too weak to quantify, mostly under pKd 3.1 to 4

Test [1] addresses T1, MPP7, Q5T2T1.
T1 sequence (Q5T2T1 134-230, limits assumed, looked up): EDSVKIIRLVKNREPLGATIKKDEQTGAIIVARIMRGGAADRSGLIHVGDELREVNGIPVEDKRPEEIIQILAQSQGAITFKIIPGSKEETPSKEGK

The target in test [2] is Inadl_6, Q8NI35.
Sequence of Inadl_6, Q8NI35 (Q8NI35 1058-1167): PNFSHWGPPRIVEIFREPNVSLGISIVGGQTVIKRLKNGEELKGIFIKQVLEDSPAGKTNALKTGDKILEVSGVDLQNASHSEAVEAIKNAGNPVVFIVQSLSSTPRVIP
Test [3] concerns the target MAGI2_5, Q86UL8.
For test [4], the target named is T2, DFNB31_1, Q9P202.
T2 sequence (Q9P202 135-233, limits assumed, looked up): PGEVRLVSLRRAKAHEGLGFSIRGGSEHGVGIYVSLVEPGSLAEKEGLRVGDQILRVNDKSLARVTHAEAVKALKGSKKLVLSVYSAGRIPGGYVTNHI

Test [5] concerns the target T3, TX1BP3, O14907.
T3 sequence (O14907 10-122, limits assumed, looked up): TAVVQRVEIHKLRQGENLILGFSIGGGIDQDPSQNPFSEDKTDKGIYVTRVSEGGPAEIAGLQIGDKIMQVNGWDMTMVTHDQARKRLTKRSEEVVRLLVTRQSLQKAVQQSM

The target of test [6] is T4, PDZRN3_1, Q9UPQ7.
T4 sequence (Q9UPQ7 244-349, limits assumed, looked up): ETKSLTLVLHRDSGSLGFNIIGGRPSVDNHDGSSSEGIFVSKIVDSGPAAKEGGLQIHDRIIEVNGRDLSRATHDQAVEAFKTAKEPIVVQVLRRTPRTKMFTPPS

Test [7] concerns the target T5, RAPGEF6, Q8TEU7.
T5 sequence (Q8TEU7 525-625, limits assumed, looked up): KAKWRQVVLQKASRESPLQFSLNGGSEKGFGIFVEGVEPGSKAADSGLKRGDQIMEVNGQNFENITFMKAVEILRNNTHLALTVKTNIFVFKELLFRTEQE

Test [8] has as its target CASK, O14936.
Test [9] has as its target T6, GRIP1_5, Q9Y3R0.
T6 sequence (Q9Y3R0 568-668, limits assumed, looked up): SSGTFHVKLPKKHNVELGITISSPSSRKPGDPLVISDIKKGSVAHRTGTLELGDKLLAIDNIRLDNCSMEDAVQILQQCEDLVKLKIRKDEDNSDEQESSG

Test [10] has as its target T7, DFNB31_3, Q9P202.
T7 sequence (Q9P202 811-907, limits assumed, looked up): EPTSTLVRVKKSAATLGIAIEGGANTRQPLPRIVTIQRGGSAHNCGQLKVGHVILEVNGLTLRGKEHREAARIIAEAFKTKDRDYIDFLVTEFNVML

For test [11], the target named is DLG1_3, Q12959.
Sequence of DLG1_3, Q12959 (Q12959 457-571): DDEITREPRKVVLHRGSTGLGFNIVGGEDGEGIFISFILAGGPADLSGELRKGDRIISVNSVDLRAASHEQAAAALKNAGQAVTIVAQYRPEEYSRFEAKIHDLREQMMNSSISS
Test [12] deals with GORASP1, Q9BQQ3.
Sequence of GORASP1, Q9BQQ3 (Q9BQQ3 1-208): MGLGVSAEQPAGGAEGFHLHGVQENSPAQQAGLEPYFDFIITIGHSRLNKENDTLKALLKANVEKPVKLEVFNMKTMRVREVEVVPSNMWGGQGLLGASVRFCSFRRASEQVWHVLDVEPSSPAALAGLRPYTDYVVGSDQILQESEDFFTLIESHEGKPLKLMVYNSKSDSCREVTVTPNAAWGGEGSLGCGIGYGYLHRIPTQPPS
The target in test [13] is MAST2, Q6P0Q8.
Sequence of MAST2, Q6P0Q8 (Q6P0Q8 1099-1202): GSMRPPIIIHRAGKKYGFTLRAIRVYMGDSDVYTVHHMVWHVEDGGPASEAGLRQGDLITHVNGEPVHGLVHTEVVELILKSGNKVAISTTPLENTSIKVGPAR
The target of test [14] is GIPC2, Q8TF65.
Sequence of GIPC2, Q8TF65 (Q8TF65 112-203): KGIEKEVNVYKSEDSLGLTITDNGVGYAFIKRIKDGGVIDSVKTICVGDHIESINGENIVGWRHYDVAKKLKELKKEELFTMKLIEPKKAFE
In test [15] the target is Inadl_1, Q8NI35.
Sequence of Inadl_1, Q8NI35 (Q8NI35 113-229): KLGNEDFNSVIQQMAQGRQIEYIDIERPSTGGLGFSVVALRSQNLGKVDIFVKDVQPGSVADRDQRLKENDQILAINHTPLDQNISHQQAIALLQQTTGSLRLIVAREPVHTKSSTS
For test [16], the target named is T8, HTRA3, P83110.
T8 sequence (P83110 354-453, limits assumed, looked up): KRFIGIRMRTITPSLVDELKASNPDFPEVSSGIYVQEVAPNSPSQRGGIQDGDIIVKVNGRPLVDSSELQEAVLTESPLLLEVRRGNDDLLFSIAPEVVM

Test [17] deals with SCRIB_1, Q14160.
Sequence of SCRIB_1, Q14160 (Q14160 718-814): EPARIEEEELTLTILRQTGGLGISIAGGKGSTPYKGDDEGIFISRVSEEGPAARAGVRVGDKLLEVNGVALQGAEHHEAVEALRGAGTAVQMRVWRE
Test [18] deals with T9, SNTB1, Q13884.
T9 sequence (Q13884 107-205, limits assumed, looked up): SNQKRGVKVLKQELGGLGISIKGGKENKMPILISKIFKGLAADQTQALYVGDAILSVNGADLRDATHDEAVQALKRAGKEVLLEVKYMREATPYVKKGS

Test [19] addresses FRMPD2_1, Q68DX3.
For test [20], the target named is T10, LIN7B, Q9HAP6.
T10 sequence (Q9HAP6 88-185, limits assumed, looked up): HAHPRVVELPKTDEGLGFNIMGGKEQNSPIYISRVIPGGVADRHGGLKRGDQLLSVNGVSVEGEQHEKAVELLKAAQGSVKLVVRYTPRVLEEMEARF

Test [21] addresses T11, ARHGEF11, O15085.
T11 sequence (O15085 42-136, limits assumed, looked up): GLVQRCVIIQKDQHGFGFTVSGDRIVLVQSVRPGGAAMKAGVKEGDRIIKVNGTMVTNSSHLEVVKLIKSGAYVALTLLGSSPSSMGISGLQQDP

In test [22] the target is GRIP2_6, Q9C0E4.
Sequence of GRIP2_6, Q9C0E4 (Q9C0E4 648-740): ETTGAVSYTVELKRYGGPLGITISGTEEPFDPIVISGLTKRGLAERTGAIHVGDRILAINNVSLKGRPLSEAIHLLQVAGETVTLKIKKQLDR
Test [23] deals with T12, GRIP1_4, Q9Y3R0.
T12 sequence (Q9Y3R0 467-571, limits assumed, looked up): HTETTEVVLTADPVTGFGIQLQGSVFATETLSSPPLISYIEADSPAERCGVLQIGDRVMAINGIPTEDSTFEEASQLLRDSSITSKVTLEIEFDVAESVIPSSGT

Test [24] deals with T13, APBA2_1, Q99767.
T13 sequence (Q99767 563-664, limits assumed, looked up): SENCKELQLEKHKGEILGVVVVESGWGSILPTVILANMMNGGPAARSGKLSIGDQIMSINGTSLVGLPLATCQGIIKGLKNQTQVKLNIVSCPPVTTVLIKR

Setting [25] is: plain residues with an end cap or a label only (N-terminal biotin on a linker: ahx).
[26] abbreviates: plain residues with an end cap or a label only (N-terminal biotin on a linker: ado-ado).
Setting [27] is: plain residues with an end cap or a label only (N-terminal biotin on a linker: ttds).

Sequence of MAGI2_5, Q86UL8 (Q86UL8 915-1017): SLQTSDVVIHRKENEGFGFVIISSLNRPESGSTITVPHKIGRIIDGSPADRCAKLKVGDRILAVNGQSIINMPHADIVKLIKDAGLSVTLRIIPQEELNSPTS
Sequence of FRMPD2_1, Q68DX3 (Q68DX3 770-861): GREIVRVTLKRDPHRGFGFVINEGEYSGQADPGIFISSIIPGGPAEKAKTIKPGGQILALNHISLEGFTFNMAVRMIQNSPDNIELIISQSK
Sequence of CASK, O14936 (O14936 487-570): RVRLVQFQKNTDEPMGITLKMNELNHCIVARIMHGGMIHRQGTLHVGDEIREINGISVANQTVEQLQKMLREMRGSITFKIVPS

Consider ADENEQVSAV [RAPGEF6, Q8TEU7], for which the pKd result in test [1] (setting [25]) is “below the threshold”; in [2] (setting [25]) it was 3.59; in [3] (setting [25]) it was 4.38; in [4] (setting [25]), “below the threshold”; in [5] (setting [25]), “below the threshold”; in test [6] (setting [25]) it was 3.79. In addition, the pKd entry in [7] (setting [25]), in test [8] (setting [25]), in test [9] (setting [25]), in [10] (setting [25]), in test [11] (setting [25]) and in test [12] (setting [25]) was “below the threshold” throughout. The pKd in test [13] (setting [25]) is 4.79; in test [14] (setting [25]) it was “below the threshold”; in test [15] (setting [25]), “below the threshold”; in [16] (setting [25]), “below the threshold”; in test [17] (setting [25]), 3.65; in test [18] (setting [25]), 3.71. Further, the pKd entry is “below the threshold” in [19] (setting [25]); “below the threshold” in test [20] (setting [25]); 4.06 in test [21] (setting [25]); “below the threshold” in [22] (setting [25]); “below the threshold” in [23] (setting [25]); “below the threshold” in test [24] (setting [25]).
Turning to ELKAEDEVQI [DCHS2, Q6V1P9], the pKd in [1] (setting [26]) is 4; in [2] (setting [26]) it was “below the threshold”; in [3] (setting [26]), “below the threshold”; in test [4] (setting [26]), “below the threshold”; in test [5] (setting [26]), “below the threshold”; in test [6] (setting [26]), “below the threshold”. The pKd entry in [7] (setting [26]), in test [8] (setting [26]), in [9] (setting [26]), in [10] (setting [26]), in test [11] (setting [26]) and in [12] (setting [26]) was “below the threshold” throughout. In addition, the pKd entry in test [13] (setting [26]), in test [14] (setting [26]), in [15] (setting [26]), in test [16] (setting [26]), in test [17] (setting [26]) and in test [18] (setting [26]) was “below the threshold” throughout. For the same molecule, the pKd result in test [19] (setting [26]) was “below the threshold”; in test [20] (setting [26]), 3.48; in test [21] (setting [26]), “below the threshold”; in [22] (setting [26]), “below the threshold”; in test [23] (setting [26]) it was “below the threshold”; in test [24] (setting [26]) it was “below the threshold”.
As to SGGKRKETLV [NET1, Q7Z628], the pKd entry in test [1] (setting [27]) is “below the threshold”; in [2] (setting [27]), 3.6; in [3] (setting [27]) it was 4.56; in test [4] (setting [27]) it was “below the threshold”; in test [5] (setting [27]), 4.44; in [6] (setting [27]) it was 4.67. In addition, the pKd entry in test [7] (setting [27]) is “below the threshold”; in test [8] (setting [27]) it was “below the threshold”; in test [9] (setting [27]), “below the threshold”; in test [10] (setting [27]) it was “below the threshold”; in [11] (setting [27]) it was 4.44; in test [12] (setting [27]), “below the threshold”. For the same molecule, the pKd in test [13] (setting [27]) is 4.49; in test [14] (setting [27]) it was “below the threshold”; in test [15] (setting [27]), “below the threshold”; in test [16] (setting [27]), “below the threshold”; in test [17] (setting [27]), 4; in test [18] (setting [27]), 4.56. Moreover, the pKd in [19] (setting [27]) is 3.95; in test [20] (setting [27]), 3.81; in [21] (setting [27]), 4.23; in test [22] (setting [27]), “below the threshold”; in test [23] (setting [27]) it was “below the threshold”; in [24] (setting [27]) it was “below the threshold”.
As to SAPATLSSRA [PDLIM2, Q96JY6], the pKd entry in [1] (setting [25]), in test [2] (setting [25]), in test [3] (setting [25]), in test [4] (setting [25]), in test [5] (setting [25]) and in [6] (setting [25]) was “below the threshold” in each case. The pKd entry in [7] (setting [25]), in test [8] (setting [25]), in [9] (setting [25]), in test [10] (setting [25]), in [11] (setting [25]) and in test [12] (setting [25]) was “below the threshold” throughout. Moreover, the pKd entry in [13] (setting [25]), in test [14] (setting [25]), in test [15] (setting [25]), in test [16] (setting [25]), in [17] (setting [25]) and in test [18] (setting [25]) was “below the threshold” in each case. Also, the pKd entry in [19] (setting [25]), in [20] (setting [25]), in test [21] (setting [25]), in [22] (setting [25]), in [23] (setting [25]) and in [24] (setting [25]) was “below the threshold” each time.

The term pKd denotes the negative decadic logarithm of the Kd, by convention in mol/L.
